According to patent publication US20230184787:

Target: T1, full-length human calprotectin (heterodimer of S100A9 and S100A8), P06702
T1 chain 1: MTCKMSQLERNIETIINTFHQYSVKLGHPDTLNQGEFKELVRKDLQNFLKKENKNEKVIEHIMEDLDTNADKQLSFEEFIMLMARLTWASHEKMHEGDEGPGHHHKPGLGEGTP
T1 chain 2: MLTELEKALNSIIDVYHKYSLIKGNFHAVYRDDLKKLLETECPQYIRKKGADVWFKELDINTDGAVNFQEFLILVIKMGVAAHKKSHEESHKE

B1: human neutrophil elastase (protein)
chain: IVGGRRARPHAWPFMVSLQLRGGHFCGATLIAPNFVMSAAHCVANVNVRAVRVVLGAHNLSRREPTRQVFAVQRIFENGYDPVNLLNDIVILQLNGSATINANVQVAQLPAQGRRLGNGVQCLAMGWGLLGRNRGIASVLQELNVTVVTSLCRRSNVCTLVRGRQAGVCFGDSGSPLVCNGLIHGIASFVRGGCASGLYPDAFAPVAQFVNWIDSIIQ
calprotectin fragments identified by non-targeted mass spectrometry after in vitro cleavage: several neo-epitope containing calprotectin fragments were generated by HNE, from both the S100A9 and S100A8 proteins
